Numbered stars: 1 amine (or outer) side, 2 acyl side, 3 side chain; on linkers, the order of the positions; unused ones are H or OH. Square brackets hold non-standard residues; d marks the D form. Primed or numbered codes have the meaning given here. Side chains are listed from the residue outwards. Ends that are not written are not given here. * marks the point of attachment. C20 diacid = O=C(O)CCCCCCCCCCCCCCCCCCC(=O)*; C18 diacid = O=C(O)CCCCCCCCCCCCCCCCC(=O)*; C16 diacid = O=C(O)CCCCCCCCCCCCCCC(=O)*; γGlu = O=C(O)[C@H](CCC(=O)[*:2])N[*:1]; Iva = CC[C@](C)(N)C(=O)O; PEG3′ = not defined here; AGlu = not defined here; Aib = CC(C)(N)C(=O)O

This note sets out measurements from patent publication US20220135638A1 (Takeda / Millennium, published 2022).

In the first assay the target is T1, full-length human GIPR (GenBank NM_000164) with an N-terminal FLAG tag on HEK-293T cells (human), P48546.
T1 chain: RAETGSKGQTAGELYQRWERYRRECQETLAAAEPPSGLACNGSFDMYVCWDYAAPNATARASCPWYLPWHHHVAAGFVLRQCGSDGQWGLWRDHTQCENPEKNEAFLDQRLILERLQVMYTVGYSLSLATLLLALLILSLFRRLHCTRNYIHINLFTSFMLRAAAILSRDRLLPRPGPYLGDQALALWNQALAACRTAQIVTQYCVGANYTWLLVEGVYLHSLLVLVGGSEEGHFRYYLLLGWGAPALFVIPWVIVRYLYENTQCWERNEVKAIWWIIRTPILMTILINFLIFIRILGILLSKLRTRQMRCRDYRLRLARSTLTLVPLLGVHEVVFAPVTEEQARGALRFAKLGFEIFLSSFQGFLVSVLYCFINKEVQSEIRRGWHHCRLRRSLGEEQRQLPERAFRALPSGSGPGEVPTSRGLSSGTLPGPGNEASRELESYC
As to the kind of experiment: cell-based or functional assay.
Molecule Y[Aib]EGTFISDYSIALDR[Aib]HQ[Aib]NFVNW[Iva]LAQRPSSGAPPPK([PEG3′-PEG3′-C16 diacid])R (ends and bridges not checked) [Compound No 939] came in with a GIP EC50(pM) of 0.6 pM.
The same measure, in the same setting: to Y[Aib]EGTFISDYSIALDR[Aib]HQ[Aib]NFVNW[Iva]LAQRPK([PEG3′-PEG3′-C16 diacid])SGAPPPSR (ends and bridges not checked) [Compound No 892] belongs 1.7 pM; to Y[Aib]EGTFISDYSIALDR[Aib]HQ[Aib]NFVNW[Iva]LAQRPSSGAPPPK([PEG3′-PEG3′-C20 diacid])R (ends and bridges not checked) [Compound No 941], 0.4 pM; to Y[Aib]EGTFISDYSIALDR[Aib]HQ[Aib]NFVNW[Iva]LAQRPK([PEG3′-PEG3′-C18 diacid])SGAPPPSR (ends and bridges not checked) [Compound No 893], 2.3 pM.
Still for that read-out and setting: to Y[Aib]EGTFISDYSIALDR[Aib]HQ[Aib]NFVNW[Iva]LAQRGGGGSGGGGSK([PEG3′-PEG3′-γGlu-C18 diacid]) (ends and bridges not checked) [Compound No 943] belongs 1.5 pM; to Y[Aib]EGTFISDYSIALDR[Aib]HQ[Aib]NFVNW[Iva]LAQRK([PEG3′-PEG3′-C18 diacid])SSGAPPPSR (ends and bridges not checked) [Compound No 912], 0.7 pM; to Y[Aib]EGTFISDYSIALDR[Aib]HQ[Aib]NFVNW[Iva]LAQRPSSGAPK([PEG3′-PEG3′-C20 diacid])PSR (ends and bridges not checked) [Compound No 929], 1.8 pM.
On the same count and under the same terms, the same measure for Y[Aib]EGTFISDYSIALDR[Aib]HQ[Aib]NFVNW[Iva]LAQRPSSGAPPK([PEG3′-PEG3′-C20 diacid])SR (ends and bridges not checked) [Compound No 935]: 1 pM.
On to Y[Aib]EGTFISDYSIALDR[Aib]HQ[Aib]NFVNW[Iva]LAQRPSSGAPPK([PEG3′-PEG3′-C16 diacid])SR (ends and bridges not checked) [Compound No 933], for which the GIP EC50(pM) was 0.6 pM.
Consider Y[Aib]EGTFISDYSIALDR[Aib]HQ[Aib]NFVNW[Iva]LAQRPSSGAPPK([PEG3′-PEG3′-C18 diacid])SR (ends and bridges not checked) [Compound No 934], for which the GIP EC50(pM) came out at 0.6 pM.
The same measure, in the same setting: the same measure for Y[Aib]EGTFISDYSIALDR[Aib]HQ[Aib]NFVNW[Iva]LAQRPSSGAPPPK([PEG3′-PEG3′-C18 diacid])R (ends and bridges not checked) [Compound No 940]: 0.7 pM; for Y[Aib]EGTFISDYSIALDR[Aib]HQ[Aib]NFVNW[Iva]LAQRPSSGAPK([PEG3′-PEG3′-C18 diacid])PSR (ends and bridges not checked) [Compound No 928]: 1.6 pM.
Same read-out and setting: to Y[Aib]EGTFISDYSIALDR[Aib]HQ[Aib]NFVNW[Iva]LAQRPSK([PEG3′-PEG3′-C18 diacid])GAPPPSR (ends and bridges not checked) [Compound No 899] belongs 0.7 pM.
Still for that read-out and setting: to Y[Aib]EGTFISDYSIALDR[Aib]HQ[Aib]NFVNW[Iva]LAQRPSK([PEG3′-PEG3′-C16 diacid])GAPPPSR (ends and bridges not checked) [Compound No 898] belongs 0.6 pM; to Y[Aib]EGTFISDYSIALDR[Aib]HQ[Aib]NFVNW[Iva]LAQRPSK([PEG3′-PEG3′-C20 diacid])GAPPPSR (ends and bridges not checked) [Compound No 900], 0.7 pM.
In turn, Y[Aib]EGTFISDYSIALDR[Aib]HQ[Aib]NFVNW[Iva]LAQRPK([PEG3′-PEG3′-C20 diacid])SGAPPPSR (ends and bridges not checked) [Compound No 894] showed a GIP EC50(pM) of 1.9 pM.
Still for that read-out and setting: to Y[Aib]EGTFISDYSIALDR[Aib]HQ[Aib]NFVNW[Iva]LAQRPSSGAPK([PEG3′-PEG3′-C16 diacid])PSR (ends and bridges not checked) [Compound No 927] belongs 1.3 pM; to Y[Aib]EGTFISDYSIALDR[Aib]HQ[Aib]NFVNW[Iva]LAQRGGGGSK([PEG3′-PEG3′-γGlu-C18 diacid]) (ends and bridges not checked) [Compound No 942], 1.4 pM.

The target of another assay is T2, full-length human GLP-1R (GenBank NM_002062) with an N-terminal FLAG tag on HEK-293T cells (human), P43220.
T2 chain: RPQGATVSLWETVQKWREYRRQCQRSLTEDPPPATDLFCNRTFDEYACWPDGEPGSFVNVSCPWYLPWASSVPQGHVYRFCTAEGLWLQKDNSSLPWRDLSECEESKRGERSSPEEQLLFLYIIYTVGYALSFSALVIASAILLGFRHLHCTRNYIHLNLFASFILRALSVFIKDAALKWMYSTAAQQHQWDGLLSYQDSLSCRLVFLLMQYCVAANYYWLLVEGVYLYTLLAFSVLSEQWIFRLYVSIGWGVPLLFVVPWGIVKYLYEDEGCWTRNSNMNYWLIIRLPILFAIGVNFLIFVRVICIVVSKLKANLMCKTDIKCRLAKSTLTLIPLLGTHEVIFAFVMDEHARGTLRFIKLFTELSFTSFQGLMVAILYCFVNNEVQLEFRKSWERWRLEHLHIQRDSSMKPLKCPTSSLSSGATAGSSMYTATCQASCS
As to the kind of experiment: cell-based or functional assay.
On to Y[Aib]EGTFISDYSIALDR[Aib]HQ[Aib]NFVNW[Iva]LAQRPSSGAPPPK([PEG3′-PEG3′-C16 diacid])R (ends and bridges not checked) [Compound No 939], for which the GLP EC50 worked out at 1000 nM.
Still for that read-out and setting: the same measure for Y[Aib]EGTFISDYSIALDR[Aib]HQ[Aib]NFVNW[Iva]LAQRPK([PEG3′-PEG3′-C16 diacid])SGAPPPSR (ends and bridges not checked) [Compound No 892]: 151 nM.
Y[Aib]EGTFISDYSIALDR[Aib]HQ[Aib]NFVNW[Iva]LAQRPSSGAPPPK([PEG3′-PEG3′-C20 diacid])R (ends and bridges not checked) [Compound No 941] came in with a GLP EC50 of 1000 nM.
The same measure, in the same setting: the same measure for Y[Aib]EGTFISDYSIALDR[Aib]HQ[Aib]NFVNW[Iva]LAQRPK([PEG3′-PEG3′-C18 diacid])SGAPPPSR (ends and bridges not checked) [Compound No 893]: 2.1 nM.
Same read-out and setting: to Y[Aib]EGTFISDYSIALDR[Aib]HQ[Aib]NFVNW[Iva]LAQRGGGGSGGGGSK([PEG3′-PEG3′-γGlu-C18 diacid]) (ends and bridges not checked) [Compound No 943] belongs 1.2 nM; to Y[Aib]EGTFISDYSIALDR[Aib]HQ[Aib]NFVNW[Iva]LAQRK([PEG3′-PEG3′-C18 diacid])SSGAPPPSR (ends and bridges not checked) [Compound No 912], 105 nM; to Y[Aib]EGTFISDYSIALDR[Aib]HQ[Aib]NFVNW[Iva]LAQRPSSGAPK([PEG3′-PEG3′-C20 diacid])PSR (ends and bridges not checked) [Compound No 929], 46.8 nM.
The same measure, in the same setting: the same measure for Y[Aib]EGTFISDYSIALDR[Aib]HQ[Aib]NFVNW[Iva]LAQRPSSGAPPK([PEG3′-PEG3′-C20 diacid])SR (ends and bridges not checked) [Compound No 935]: 1000 nM; for Y[Aib]EGTFISDYSIALDR[Aib]HQ[Aib]NFVNW[Iva]LAQRPSSGAPPK([PEG3′-PEG3′-C16 diacid])SR (ends and bridges not checked) [Compound No 933]: 97.7 nM.
As for Y[Aib]EGTFISDYSIALDR[Aib]HQ[Aib]NFVNW[Iva]LAQRPSSGAPPK([PEG3′-PEG3′-C18 diacid])SR (ends and bridges not checked) [Compound No 934], the GLP EC50 came out at 436 nM.
On the same count and under the same terms, the same measure for Y[Aib]EGTFISDYSIALDR[Aib]HQ[Aib]NFVNW[Iva]LAQRPSSGAPPPK([PEG3′-PEG3′-C18 diacid])R (ends and bridges not checked) [Compound No 940]: 525 nM; for Y[Aib]EGTFISDYSIALDR[Aib]HQ[Aib]NFVNW[Iva]LAQRPSSGAPK([PEG3′-PEG3′-C18 diacid])PSR (ends and bridges not checked) [Compound No 928]: 135 nM; for Y[Aib]EGTFISDYSIALDR[Aib]HQ[Aib]NFVNW[Iva]LAQRPSK([PEG3′-PEG3′-C18 diacid])GAPPPSR (ends and bridges not checked) [Compound No 899]: 144 nM.
On the same count and under the same terms, the same measure for Y[Aib]EGTFISDYSIALDR[Aib]HQ[Aib]NFVNW[Iva]LAQRPSK([PEG3′-PEG3′-C16 diacid])GAPPPSR (ends and bridges not checked) [Compound No 898]: 74.1 nM; for Y[Aib]EGTFISDYSIALDR[Aib]HQ[Aib]NFVNW[Iva]LAQRPSK([PEG3′-PEG3′-C20 diacid])GAPPPSR (ends and bridges not checked) [Compound No 900]: 219 nM; for Y[Aib]EGTFISDYSIALDR[Aib]HQ[Aib]NFVNW[Iva]LAQRPK([PEG3′-PEG3′-C20 diacid])SGAPPPSR (ends and bridges not checked) [Compound No 894]: 794 nM.
Same read-out and setting: the same measure for Y[Aib]EGTFISDYSIALDR[Aib]HQ[Aib]NFVNW[Iva]LAQRPSSGAPK([PEG3′-PEG3′-C16 diacid])PSR (ends and bridges not checked) [Compound No 927]: 436 nM; for Y[Aib]EGTFISDYSIALDR[Aib]HQ[Aib]NFVNW[Iva]LAQRGGGGSK([PEG3′-PEG3′-γGlu-C18 diacid]) (ends and bridges not checked) [Compound No 942]: 4.3 nM.

In another assay the target is T3, human GIPR (Genebank Accession No. U39231) on hGIPR/CRE-LUC/CHO-K1 cells (human), P48546.
T3 chain: T1 chain
As to the kind of experiment: cell-based or functional assay.
Y[Aib]EGTVVSLYSI[Aib]LDKQAQ[Aib]EFVKWLLAQKK([PEG(2)-Pal]) (ends and bridges not checked) [Compound No. 20]: the hGIPR (polyclonal) Reporter (EC50) amounted to 0.1 nM.
The same measure, in the same setting: to Y[Aib]EGTFISDYSIALDR[Aib]HQ[Aib]NFVNW[Iva]LAQRPSSGAPPPSK([PEG3′-PEG3′-AGlu-C18 diacid]) (ends and bridges not checked) [Compound No. 22] belongs 0.05 nM; to Y[Aib]EGTFISDYSIALDR[Aib]HQ[Aib]NFVNW[Iva]LAQRPSSGAPPPSK([PEG3′-PEG3′-AGlu-C16 diacid]) (ends and bridges not checked) [Compound No. 21], 0.01 nM.

Another assay concerns the target T4, human GLP-1R (Genebank Accession No. NM_002062) on hGLP-1R/CRE-luc/CHO-K1 cells (human), P43220.
T4 chain: T2 chain
Kind of assay: cell-based or functional assay.
Turning to Y[Aib]EGTVVSLYSI[Aib]LDKQAQ[Aib]EFVKWLLAQKK([PEG(2)-Pal]) (ends and bridges not checked) [Compound No. 20], the hGLP-1R (Reporter gene assay)(EC50) is over 1000 nM.
Same read-out and setting: the same measure for Y[Aib]EGTFISDYSIALDR[Aib]HQ[Aib]NFVNW[Iva]LAQRPSSGAPPPSK([PEG3′-PEG3′-AGlu-C18 diacid]) (ends and bridges not checked) [Compound No. 22]: over 1000 nM; for Y[Aib]EGTFISDYSIALDR[Aib]HQ[Aib]NFVNW[Iva]LAQRPSSGAPPPSK([PEG3′-PEG3′-AGlu-C16 diacid]) (ends and bridges not checked) [Compound No. 21]: over 1000 nM.
